One experiment deals with T1, Human ROBO2 Ig1-Ig2-His (human, UniProt Q9HCK4 31-220).
T1 construct: the His tag is named only in the SPR paragraphs; the Octet and ELISA paragraphs print 'ROBO2 Ig1-Ig2' without a tag; also called ROBO2 Ig1-2; Human ROBO2 Ig 1,2
T1 sequence: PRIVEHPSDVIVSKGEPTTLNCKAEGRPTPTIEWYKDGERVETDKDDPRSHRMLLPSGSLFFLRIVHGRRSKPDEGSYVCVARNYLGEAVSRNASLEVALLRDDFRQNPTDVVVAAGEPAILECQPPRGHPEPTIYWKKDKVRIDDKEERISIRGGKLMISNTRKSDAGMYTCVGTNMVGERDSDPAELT
Kind of experiment: SPR, antibody on CM5 chip, ROBO2 Ig1-Ig2-His. As for the experimental part:
Based upon several criteria, Abcs25 and Abcs35 were selected for further characterization. Using flow cytometry, improvement in the binding EC₅₀ to human ROBO2 relative to the parental 93H2 was evaluated. Starting at 6.7 nM, 11-point, 3-fold dilution series were made for each antibody and used to stain HEK293 overexpressing human ROBO2 as described above for the ROBO2 fold selectivity (Example 2). […] In addition to measuring improved binding to human ROBO2, it was important to ensure that high affinity binding to both cynomolgus monkey ROBO2 and rat ROBO2 was maintained. Using HEK293 cells overexpressing either cynomolgus monkey ROBO2 or rat ROBO2, the relative dose-dependent binding of 93H2, Abcs25 and Abcs35 was evaluated as described above. High affinity binding to both cynomolgus monkey and rat ROBO2 was maintained in Abcs25 and Abcs35 (Table 4). […] Briefly, Abcs35 was immobilized to 300 resonance units (RU) on a CM5 chip. Association of ROBO2 Ig1-Ig2-His (ROBO2) was measured over 5 minutes and dissociation was followed for a period of 10 minutes.
Affinity was measured by standard SPR methods as described in Example 3. Briefly, antibodies were immobilized to a specific measure of resonance units (RU) on a CM5 chip. Association of ROBO2 Ig1-Ig2-His (ROBO2) and dissociation will be followed for a period of time.

In experiment [1] the target is T2, Terbium (Tb) labeled-SNAP tagged ROBO2 expressed on HEK293 cells (Homo sapiens (Human), UniProt Q9HCK4 22-1378, terbium label on the SNAP tag).
T2 construct: also called Tb-labeled ROBO2 cells; ROBO2 expressing cells; not shown: SNAP tag
T2 sequence: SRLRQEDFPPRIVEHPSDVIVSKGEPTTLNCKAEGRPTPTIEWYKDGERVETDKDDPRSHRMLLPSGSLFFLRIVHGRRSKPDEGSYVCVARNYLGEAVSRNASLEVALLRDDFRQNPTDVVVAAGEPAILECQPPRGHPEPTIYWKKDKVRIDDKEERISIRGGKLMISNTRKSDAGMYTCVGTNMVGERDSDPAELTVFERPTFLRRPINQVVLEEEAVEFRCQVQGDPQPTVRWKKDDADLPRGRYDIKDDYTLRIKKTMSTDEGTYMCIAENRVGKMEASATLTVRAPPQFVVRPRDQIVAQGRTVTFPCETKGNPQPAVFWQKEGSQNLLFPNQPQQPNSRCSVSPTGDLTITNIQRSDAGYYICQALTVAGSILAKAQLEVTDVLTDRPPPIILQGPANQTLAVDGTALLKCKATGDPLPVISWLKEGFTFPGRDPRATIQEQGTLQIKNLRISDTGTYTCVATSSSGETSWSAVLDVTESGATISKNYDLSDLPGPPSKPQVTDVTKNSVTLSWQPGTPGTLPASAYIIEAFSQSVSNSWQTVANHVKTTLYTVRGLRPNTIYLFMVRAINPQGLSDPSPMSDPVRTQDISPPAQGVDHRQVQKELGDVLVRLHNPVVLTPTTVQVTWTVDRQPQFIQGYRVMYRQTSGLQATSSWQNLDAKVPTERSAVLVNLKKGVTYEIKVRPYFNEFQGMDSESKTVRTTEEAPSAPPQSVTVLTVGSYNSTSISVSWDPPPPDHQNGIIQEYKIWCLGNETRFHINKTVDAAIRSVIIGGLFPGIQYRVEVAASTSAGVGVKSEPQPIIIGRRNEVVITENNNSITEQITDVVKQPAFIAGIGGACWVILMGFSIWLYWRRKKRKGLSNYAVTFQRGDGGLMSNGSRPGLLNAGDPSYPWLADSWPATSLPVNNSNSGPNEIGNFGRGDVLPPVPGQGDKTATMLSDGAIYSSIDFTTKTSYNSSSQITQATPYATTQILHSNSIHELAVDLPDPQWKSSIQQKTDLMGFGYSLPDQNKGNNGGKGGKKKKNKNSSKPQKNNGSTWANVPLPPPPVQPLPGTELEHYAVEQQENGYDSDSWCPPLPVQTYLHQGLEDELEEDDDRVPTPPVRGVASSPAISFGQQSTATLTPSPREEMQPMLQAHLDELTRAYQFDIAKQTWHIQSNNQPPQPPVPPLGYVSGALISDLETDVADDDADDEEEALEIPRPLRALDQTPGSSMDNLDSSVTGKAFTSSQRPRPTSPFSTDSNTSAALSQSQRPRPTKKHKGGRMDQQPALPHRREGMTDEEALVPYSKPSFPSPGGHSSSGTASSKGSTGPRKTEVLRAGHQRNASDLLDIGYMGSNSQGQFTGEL
Put plainly: HTRF competition on ROBO2 expressing cells; blocked ligand SLIT2-N; 11 points up to 10^2 nM, another dilution series than that of Table 2.

Changes are numbered by the printed parent chain.

B1: Abcs35 (antibody, human IgG1, kappa)
heavy: EVQLVQSGAEVKKPGASVKVSCKASGYTFTGYYMHWVRQAPGQGLEWMGWINPKNGDTEFPQKFQGRVTMTRDTSITTAYMDLSRLRSDDTAVYYCARESGDDAFDIWGQGTMVTVSSASTKGPSVFPLAPSSKSTSGGTAALGCLVKDYFPEPVTVSWNSGALTSGVHTFPAVLQSSGLYSLSSVVTVPSSSLGTQTYICNVNHKPSNTKVDKKVEPKSCDKTHTCPPCPAPEAAGAPSVFLFPPKPKDTLMISRTPEVTCVVVDVSHEDPEVKFNWYVDGVEVHNAKTKPREEQYNSTYRVVSVLTVLHQDWLNGKEYKCKVSNKALPAPIEKTISKAKGQPREPQVYTLPPSREEMTKNQVSLTCLVKGFYPSDIAVEWESNGQPENNYKTTPPVLDSDGSFFLYSKLTVDKSRWQQGNVFSCSVMHEALHNHYTQKSLSLSPGK
light: DIVMTQSPSSLSASVGDRVTITCRASQSISSYLNWYQQKPGKAPKLLIYAASSLQSGVPSRFSGSGSGTDFTLTISSLQPEDFATYYCQQSVGLFFGGGTKVEIKRTVAAPSVFIFPPSDEQLKSGTASVVCLLNNFYPREAKVQWKVDNALQSGNSQESVTEQDSKDSTYSLSSTLTLSKADYEKHKVYACEVTHQGLSSPVTKSFNRGEC
notes: fully human IgG1; VH of Ab96 with VL of Ab123
B1 registered a Kd with Human ROBO2 Ig1-Ig2-His of 0.0857 nM. For the same molecule, the “IC50 (read off the curve)” value in experiment [1] is about 0.05 nM.

B2: Abcs35-J (antibody, human IgG1, kappa)
heavy: B1 heavy with D82E
light: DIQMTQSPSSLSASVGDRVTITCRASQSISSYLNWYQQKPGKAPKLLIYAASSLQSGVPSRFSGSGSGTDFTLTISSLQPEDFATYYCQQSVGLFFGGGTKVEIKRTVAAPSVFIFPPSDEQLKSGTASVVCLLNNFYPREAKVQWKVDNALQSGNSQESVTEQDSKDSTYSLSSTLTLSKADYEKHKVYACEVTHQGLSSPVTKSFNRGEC
notes: germlined variant of Abcs35; also called ABCS-J
Turning to B2, the Kd with Human ROBO2 Ig1-Ig2-His amounted to 0.0939 nM.

The values are drawn from patent publication US20200157212A1 (Pfizer, published 2020).
